Patent US20110002929A1 (Ablynx, published 2011)

T1: human RANK-L (human, UniProt O14788 140-317, limits assumed)
T1 sequence (looked up): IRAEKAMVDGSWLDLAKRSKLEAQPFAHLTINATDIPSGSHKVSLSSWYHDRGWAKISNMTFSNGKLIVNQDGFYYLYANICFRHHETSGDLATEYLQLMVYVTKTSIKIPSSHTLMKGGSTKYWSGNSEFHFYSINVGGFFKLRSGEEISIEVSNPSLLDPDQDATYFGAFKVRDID

T2: mouse RANK-L (mouse, UniProt O35235 158-316, limits assumed)
T2 construct: also called murine RANK-L
T2 sequence (looked up): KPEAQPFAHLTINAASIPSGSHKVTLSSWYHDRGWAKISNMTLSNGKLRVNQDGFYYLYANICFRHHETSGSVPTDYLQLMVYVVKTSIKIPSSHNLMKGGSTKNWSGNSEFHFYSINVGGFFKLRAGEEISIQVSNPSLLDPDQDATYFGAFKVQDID


Assays:
[1] = target: T1, human RANK-L; test: cell-based or functional assay
[2] = target: T1, human RANK-L; test: ELISA (ED50), biotin-hRANK-L on neutravidin
Procedure: (§1) Therefore 2 μg/ml neutravidin was coated overnight at 4° C. The plates were washed 5 times with 300 μl PBS and then blocked with […] 1% casein/PBS for 2 hours at room temperature. […] After extensive washing with PBS, varying concentrations of Nanobodies starting from 500 nM to 160 pM diluted in 1% casein/PBS were added to the wells and the plates were incubated for 1 hour at room temperature. Bound Nanobodies were detected by subsequent incubations of a primary mouse anti-myc antibody and a secondary anti mouse-HRP conjugate (DAKO, Glostrup, Denmark) and using TMB-H2O2 (Pierce, Rockford, Ill., USA) substrate cocktail. The reaction was stopped with H₂SO₄ and the OD was read at 450 nm.

[3] = target: T1, human RANK-L; test: AlphaScreen, biotin-hRANK-L / RANK-huFc beads
Procedure: To this mixture, the RANK acceptor beads and the streptavidin donor beads were added and further incubated for 1 hour at room temperature. Fluorescence was measured by reading plates on the EnVision Multilabel Plate Reader (Perkin Elmer) using an excitation wavelength of 680 nm and an emission wavelength of 520 nm.

[4] = target: T1, human RANK-L; test: AlphaScreen, biotin-hRANK-L / RANK-huFc beads; remark: listed apart in the source
[5] = target: T2, mouse RANK-L; test: ELISA (ED50) on murine RANK-L, set-up as for human RANK-L
Procedure: as §1

[6] = target: T1, human RANK-L; test: AlphaScreen, biotin-hRANK-L / RANK-huFc beads; remark: listed apart in the source
[7] = target: T1, human RANK-L; test: FMAT, ALEXA647-hRANK-L / RANK on HEK293T cells
[8] = target: T3, TNFα (UniProt P01375 77-233); test: competition ELISA on human RANK-L-coated plates, 100 pM Nanobody preincubated with the ligand
T3 construct: also called TNF-alpha

[9] = target: T4, TRAIL (UniProt P50591 114-281, limits assumed); test: as above
T4 construct: also called tumor necrosis factor-related apoptosis inducing ligand

[10] = target: T2, mouse RANK-L; test: as above

T4 sequence (P50591 114-281 limits assumed): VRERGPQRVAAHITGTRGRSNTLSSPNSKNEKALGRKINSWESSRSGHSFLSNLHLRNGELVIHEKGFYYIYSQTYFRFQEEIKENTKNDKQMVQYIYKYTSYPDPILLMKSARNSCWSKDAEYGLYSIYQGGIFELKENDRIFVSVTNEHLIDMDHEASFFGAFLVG
T3 sequence (P01375 77-233 limits assumed): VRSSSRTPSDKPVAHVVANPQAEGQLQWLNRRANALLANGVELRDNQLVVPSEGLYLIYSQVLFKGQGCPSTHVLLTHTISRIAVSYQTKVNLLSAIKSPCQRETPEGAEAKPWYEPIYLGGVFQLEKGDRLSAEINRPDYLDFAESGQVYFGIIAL

Row | RANK-L induced NF-kappaB activation (luciferase reporter, HEK293T cells), IC50 [1] [nM] | EC50 [2] [nM] | IC50 [3] [nM] | IC50 [4] [nM] | EC50 [5] [nM] | IC50 [6] [nM] | IC50 [7] [nM] | binding result [8] | binding result [9] | binding result [10] | Binder
1 | 8.32 | 0.568 | 0.497 | 0.474 | ~0.6 |  |  |  |  |  | RANKL3 (VHH, not shown: small tags and cut ends) VHH: EVQLVESGGKLVQAGGSLRLSCAVSGRTSSIYNMAWFRQGPGKGRESVGRIYWSDDNTYYADSVKGRFTISRDNATNTVYLQMNSLKPEDTAVYYCAGKTTKWSLEYDYWGQGTQVTVSS
2 |  |  |  |  |  | 0.049 | 0.041 | no binding (tested: 10 nM) | no binding (tested: 10 nM) | no binding (tested: 10 nM) | RANKL001p (VHH, PEG (3-Maleimidoproprionamide, 1,3-bis(Methoxy poly (ethylene glycol) modified 2-glycerol), Average MW 40,000) coupled after DTT reduction; the entry ends in GGGC, Bivalent pegylated humanized Nanobody; also called RANKL13hum5-9GS-RANKL13hum5-PEG) EVQLVESGGGLVQPGGSLRLSCAASGFTFSSYPMGWFRQAPGKGREFVSSITGSGGSTYYADSVKGRFTISRDNAKNTLYLQMNSLRPEDTAVYYCAAYIRPDTYLSRDYRKYDYWGQGTLVTVSSGGGGSGGGSEVQLVESGGGLVQPGGSLRLSCAASGFTFSSYPMGWFRQAPGKGREFVSSITGSGGSTYYADSVKGRFTISRDNAKNTLYLQMNSLRPEDTAVYYCAAYIRPDTYLSRDYRKYDYWGQGTLVTVSSGGGC
3 |  |  |  |  |  | 0.025 | 0.038 | no binding (tested: 10 nM) | no binding (tested: 10 nM) | no binding (tested: 10 nM) | RANKL003p (VHH, PEG (3-Maleimidoproprionamide, 1,3-bis(Methoxy poly (ethylene glycol) modified 2-glycerol), Average MW 40,000) coupled after DTT reduction; the entry ends in GGGC, Bivalent pegylated humanized Nanobody; also called RANKL3p; RANKL18hum6-30GS-RANKL18hum6-PEG) EVQLVESGGGLVQPGGSLRLSCAASGRTFSRSAMGWFRQAPGKGREFVGFITGSGGTTYYADSVKGRFTISRDNAQNPVYLQMNSLRPEDTAVYYCAVYRRTYISSTYSESSEYDYWGQGTLVTVSSGGGGSGGGGSGGGGSGGGGSGGGGSGGGGSEVQLVESGGGLVQPGGSLRLSCAASGRTFSRSAMGWFRQAPGKGREFVGFITGSGGTTYYADSVKGRFTISRDNAQNPVYLQMNSLRPEDTAVYYCAVYRRTYISSTYSESSEYDYWGQGTLVTVSSGGGC
